Results published in paper PMC5691081.

Target: GST-DIAPH3-NT
Assay: GST pull-down with immunoblot quantification
Settings: n = 3, parent: est. 1.0, read off a plot

ratio to parent | ratio to parent (p = 0.0072 vs wt) | Substance
0.82 |  | MBP-anillin (1–151) wild type (from UniProt Q9NQW6) Q42A
0.38 |  | MBP-anillin (1–151) wild type (from UniProt Q9NQW6) P43A; L44A
0.59 |  | MBP-anillin (1–151) wild type (from UniProt Q9NQW6) R41A
0.94 |  | MBP-anillin (1–151) wild type (from UniProt Q9NQW6) K38A; R39A
 | 0.03 | MBP-anillin (1–151) wild type (from UniProt Q9NQW6) R41A; Q42A; P43A; L44A
